Laboratory results as given in patent publication US20150071985A1 (HAEMOSTATIX, published 2015).
Where no end group is shown, it is not given here.

T1: human fibrinogen (human, UniProt P02671 20-629; P02675 31-491; P02679 27-437, limits assumed)
T1 construct: also called purified human fibrinogen
T1 sequence (looked up) 1: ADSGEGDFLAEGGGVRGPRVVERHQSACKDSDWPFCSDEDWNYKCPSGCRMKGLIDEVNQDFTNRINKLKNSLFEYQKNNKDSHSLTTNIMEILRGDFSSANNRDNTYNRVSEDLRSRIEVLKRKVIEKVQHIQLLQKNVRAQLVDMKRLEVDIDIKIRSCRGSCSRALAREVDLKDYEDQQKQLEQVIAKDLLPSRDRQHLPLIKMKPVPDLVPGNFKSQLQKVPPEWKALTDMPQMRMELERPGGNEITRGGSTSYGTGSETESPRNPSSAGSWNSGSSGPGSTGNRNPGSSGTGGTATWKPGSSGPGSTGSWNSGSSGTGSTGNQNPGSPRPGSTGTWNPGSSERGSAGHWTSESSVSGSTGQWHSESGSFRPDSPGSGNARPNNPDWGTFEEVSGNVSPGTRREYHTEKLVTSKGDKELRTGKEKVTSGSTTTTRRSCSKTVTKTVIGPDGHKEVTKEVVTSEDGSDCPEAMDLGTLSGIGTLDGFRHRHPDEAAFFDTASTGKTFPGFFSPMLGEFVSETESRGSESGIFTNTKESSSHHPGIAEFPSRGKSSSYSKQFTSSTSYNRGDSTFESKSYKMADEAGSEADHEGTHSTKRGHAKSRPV
T1 sequence (looked up) 2: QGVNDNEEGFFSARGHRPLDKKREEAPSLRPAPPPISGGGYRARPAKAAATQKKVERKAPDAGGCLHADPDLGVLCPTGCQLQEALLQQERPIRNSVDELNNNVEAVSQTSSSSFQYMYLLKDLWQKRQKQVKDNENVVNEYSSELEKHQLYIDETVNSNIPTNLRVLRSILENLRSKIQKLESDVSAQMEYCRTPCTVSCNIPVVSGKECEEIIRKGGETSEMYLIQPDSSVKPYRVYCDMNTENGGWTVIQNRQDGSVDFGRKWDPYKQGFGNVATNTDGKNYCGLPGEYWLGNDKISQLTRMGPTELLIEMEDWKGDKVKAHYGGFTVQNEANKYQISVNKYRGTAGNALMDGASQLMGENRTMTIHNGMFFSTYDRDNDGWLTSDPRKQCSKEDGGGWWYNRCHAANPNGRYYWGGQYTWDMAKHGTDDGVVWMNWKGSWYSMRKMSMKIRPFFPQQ
T1 sequence (looked up) 3: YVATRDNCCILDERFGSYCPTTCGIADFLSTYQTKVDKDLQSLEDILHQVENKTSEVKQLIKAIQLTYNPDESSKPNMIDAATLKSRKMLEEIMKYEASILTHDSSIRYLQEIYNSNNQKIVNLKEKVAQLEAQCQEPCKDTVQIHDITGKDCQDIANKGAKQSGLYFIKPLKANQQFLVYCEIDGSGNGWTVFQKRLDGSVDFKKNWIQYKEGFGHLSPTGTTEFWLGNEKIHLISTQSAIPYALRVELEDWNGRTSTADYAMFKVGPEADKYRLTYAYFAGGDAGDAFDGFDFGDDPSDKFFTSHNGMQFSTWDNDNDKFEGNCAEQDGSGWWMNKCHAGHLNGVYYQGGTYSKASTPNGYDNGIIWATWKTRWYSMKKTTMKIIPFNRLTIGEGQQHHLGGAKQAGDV

B1: GPRPG peptide conjugated to albumin microparticles (peptide)
peptide: GPRPG
modifications: also: conjugated to albumin microparticles, linker and chemistry not given here
notes: Surrogate of PeproStat for the flow cytometry test; also called the particles; not shown: The albumin microparticle carrier

Columns and labels:
[1] = molecular target: human fibrinogen (human) (UniProt P02671); assay: cell-based or functional assay
[2] = molecular target: T1, human fibrinogen; assay: flow cytometry; peptide-albumin microparticles incubated with fluorescent fibrinogen

Row | Molecule | Clotting activity (time to clot formation, Sigma Amelung KC4 coagulometer; 30 µL sample at 0.5 mg/ml added to 100 µL purified human fibrinogen at 3 mg/ml) [1] | binding result [2]
1 | PeproStat (GPRPG-PEG12-maleimide conjugated to thiolated human serum albumin) (from UniProt P02768 25-609) | < 6 s | 
2 | B1 |  | binds
